Assay results: patent publication US20240174744A1 (SCIRHOM, published 2024)

T1: hiR2-FL-L539A-T7 (human iRhom2 full length L539A, 3 x T7 tag) (human, UniProt Q6PJF5 1-856)
T1 sequence: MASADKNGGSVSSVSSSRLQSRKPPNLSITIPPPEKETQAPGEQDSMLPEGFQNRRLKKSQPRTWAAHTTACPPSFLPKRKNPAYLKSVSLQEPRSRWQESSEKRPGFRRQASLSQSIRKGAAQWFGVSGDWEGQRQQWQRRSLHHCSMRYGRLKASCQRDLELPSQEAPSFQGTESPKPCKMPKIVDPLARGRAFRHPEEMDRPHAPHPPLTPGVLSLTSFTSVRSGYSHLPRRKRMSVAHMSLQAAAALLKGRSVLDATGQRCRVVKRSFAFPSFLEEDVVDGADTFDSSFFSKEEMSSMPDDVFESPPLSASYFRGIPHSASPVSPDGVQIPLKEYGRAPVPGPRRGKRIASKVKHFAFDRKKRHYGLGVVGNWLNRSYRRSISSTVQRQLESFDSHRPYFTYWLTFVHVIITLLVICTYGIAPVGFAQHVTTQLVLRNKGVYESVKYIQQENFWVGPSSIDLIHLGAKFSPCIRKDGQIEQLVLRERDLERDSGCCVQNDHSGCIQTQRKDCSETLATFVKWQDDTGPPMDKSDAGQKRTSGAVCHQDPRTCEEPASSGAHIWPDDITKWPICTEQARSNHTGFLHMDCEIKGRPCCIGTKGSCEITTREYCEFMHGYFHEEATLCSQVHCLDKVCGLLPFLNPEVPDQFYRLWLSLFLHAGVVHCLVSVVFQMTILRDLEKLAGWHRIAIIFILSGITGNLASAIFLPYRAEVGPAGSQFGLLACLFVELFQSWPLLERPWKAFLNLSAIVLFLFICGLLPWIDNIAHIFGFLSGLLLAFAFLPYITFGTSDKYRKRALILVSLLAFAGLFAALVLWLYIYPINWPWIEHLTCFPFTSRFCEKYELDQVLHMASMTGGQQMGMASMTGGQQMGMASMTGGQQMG


Molecular target: T1, hiR2-FL-L539A-T7 (human iRhom2 full …)
Experiment: FACS on cells of the row L539A, vs human iR2 wild type = 100%
Description: In brief, immortalized MEF-DKO-hiR2-FL-G498A-T7, MEF-DKO-hiR2-FL-Q502R-T7, MEF-DKO-hiR2-FL-I509V-T7, MEF-DKO-hiR2-FL-Q512S-T7, MEF-DKO-hiR2-FL-R513E-T7, MEF-DKO-hiR2-FL-K514E-T7, MEF-DKO-hiR2-FL-D515E-T7, MEF-DKO-hiR2-FL-E518S-T7, MEF-DKO-hiR2-FL-T522V-T7, MEF-DKO-hiR2-FL-F523W-T7, MEF-DKO-hiR2-FL-Q527P-T7, MEF-DKO-hiR2-FL-D528I-T7, MEF-DKO-hiR2-FL-D529H-T7, MEF-DKO-hiR2-FL-T530P-T7, MEF-DKO-hiR2-FL-G531S-T7, MEF-DKO-hiR2-FL-P532A-T7, MEF-DKO-hiR2-FL-M534-T7, MEF-DKO-hiR2-FL-D535-T7, MEF-DKO-hiR2-FL-K536-T7, MEF-DKO-hiR2-FL-S537E-T7, MEF-DKO-hiR2-FL-D538L-T7, MEF-DKO-hiR2-FL-L539A-T7, MEF-DKO-hiR2-FL-Q541H-T7, MEF-DKO-hiR2-FL-T544Q-T7, MEF-DKO-hiR2-FL-S545F-T7, MEF-DKO-hiR2-FL-A547S-T7, MEF-DKO-hiR2-FL-T555V-T7, MEF-DKO-hiR2-FL-E557D-T7, MEF-DKO-hiR2-FL-A560S-T7 and MEF-DKO-hiR2-FL-S562E-T7 cells were harvested with 10 mM EDTA in PBS, washed and resuspended in FACS buffer (PBS, 3% FBS, 0.05% sodium azide), and seeded in Nunc U-bottom 96-well plates (Thermo Fisher Scientific, USA) at approximately 3×10⁵ cells per well. To pellet cells and remove supernatants, the plates were centrifuged at 1,500 rpm and 4° C. for 3 minutes. For primary staining, cells were resuspended in 100 μl per well of either FACS buffer alone (controls) or the purified antibodies 3, 5, 16, 22, 34, 42, 43, 44, 48, and 50 of the present disclosure at 3 μg/ml in FACS buffer and incubated on ice for 1 hour. Afterwards, plates were centrifuged at 1,500 rpm and 4° C. for 3 minutes and washed twice with 200 μl per well of FACS buffer. For secondary staining, cells were spun down and resuspended in 100 μl per well of PE-conjugated goat anti-mouse IgG F(ab′)2 detection fragment (Dianova, Germany) diluted 1:100 in FACS buffer. Protected from light, the cell suspensions were incubated on ice for 1 hour. Plates were then centrifuged at 1,500 rpm and 4° C. for 3 minutes and washed three times with 200 μl per well of FACS buffer. Finally, cells were resuspended in 150 μl per well of FACS buffer and analyzed using a BD Accuri™ C6 Plus flow cytometer (Becton Dickinson, Germany).

Row | Binder | grade of loss of binding vs wild type
1 | antibody 34 (antibody, V domains shown, Mouse IgG, kappa light chain; also called clone #34; m34) VH: QVTLKESGPGILQPSQTLSLTCSFSGFSLSTFSLGVGWIRQSSGKGLEWLAHIWWDDEKYYNPALKSRLTISKDTSKNQVFLKIANVDAADTATYYCARAYYSKSYYALDYWGQGTSVTVSS VL: DIQMTQSPSSLSASLGERVSLTCRASQEISGYLSWLQQKPDGTIKRLIYAASTLDSGVPKRFSGSRSGSDYSLAISSLESEDFADYYCLQYANFPFTFGSGTKLEIK | 3 grade (3 => 95% loss of binding vs wild type)
2 | antibody 43 (antibody, V domains shown, Mouse IgG, kappa light chain; also called clone #43) VH: QVALKESGPGILQPSQTLSLTCSFSGFSLSTFGMGVGWIRQSSGKGLEWLANIWWDDDKYYNPALKSRLTISKDASKNQAFLKIANVDTADTATYYCARIGNYGSNYWYFDVWGTGTTVTVSS VL: QIVLTQSPAIMSASPGERVTMTCSANSRISYMYWYQQKPGSSPRLLIYDTSNLASGVPVRFSGSGSGTSYSLTISRMEAEDAATYNCQQWSSYPLTFGAGTKLELK | 3 grade (3 => 95% loss of binding vs wild type)
3 | antibody 5 (antibody, V domains shown, Mouse IgG, kappa light chain; also called clone #5; purified antibody 5) VH: QVTLKESGPGILQPSQTLSLTCSFSGFSLSTFGMGVGWIRQPSGKGLEWLAHIWWDDEKYYNSALKSRLTISKATSKNQAFLKIANVDTADTATYYCARISNYGSNYWYFNVWGTGTTVTVSS VL: QVVLTQSPALMSASPGEKVTMTCSAGSSVSCMYWYQQKPGSSPRVLIYDTSNLASGVPARFTGSGSGTSYSLTISRMEAEDAASYYCQQWNSYPLTFGAGTKLELK | 3 grade (3 => 95% loss of binding vs wild type)
4 | antibody 44 (antibody, V domains shown, Mouse IgG, kappa light chain; also called clone #44; m44) VH: QVTLKESGPGILQPSQTLSLTCSFSGFSLSTFGMGVGWIRQPSEKGLEWLAHIWWDDDKYYNPALKSRLTISKDTSKNQIFLKITNVDTAETATYYCSRIGNYGSNYWYFDVWGTGTTVTVSS VL: QIVLTQSPAVMSASPGEKVTMTCTASSSVYYMYWYQQTPGSSPRLLIYDTSNLASGVPVRFSGSGSGTSYSLTISRMEAEDAATYYCQQWNTYPLTFGAGTKLELK | 3 grade (3 => 95% loss of binding vs wild type)
5 | antibody 42 (antibody, V domains shown, Mouse IgG, kappa light chain; also called clone #42; m42) VH: QVTLKESGPGILQPSQTLSLTCSLSGFSLSTFGRGVGWIRQPSGKGLEWLAHIWWDDEKYYNPALKSRLTISKDTSKNQVFLRIANVDTADTATYYCARIQNYGSNYWYFDVWGTGTTVTVSS VL: LIVLTQSPAIMSASPGEKVTMTCGATSRISYMFWYQQKPGSSPRVLIYDTSNLASGVPVRFSGSGSGTSYSLTISRVEAEDVATYYCQQWNSYPLTFGAGTKLELK | 3 grade (3 => 95% loss of binding vs wild type)
6 | antibody 22 (antibody, V domains shown, Mouse IgG, kappa light chain; also called clone #22; m22) VH: QVTLKESGPGILQPSQTLSLTCSFSGFSLSTFGMGVGWIRQPSGKGLEWLAHIWWDDEKYYNSALKSRLTISKATSKNQVFLKIANVDTADTATYYCARISNYGSNYWYFNVWGTGTTVTVSS VL: QVVLTQSPALMSASPGEKVTMTCSAGSSVSYMYWYQQKPGSSPRVLIYDTSNLASGVPARFTGSGSGTSYSLTISRMEAEDAATYYCQQWNSYPLTFGAGTKLELK | 3 grade (3 => 95% loss of binding vs wild type)
7 | antibody 3 (antibody, V domains shown, Mouse IgG, kappa light chain; also called clone #3; purified antibody 3) VH: QVTLKESGPGILQPSQTLSLTCSFSGFSLTTFAMGIGWVRQPSGKGLEWLAHIWWDGEKYNNPVLKSRLTISKDTSKNQVFLRIANVDTPDTATYYCARISSIYYIIDNWGQGTSVTVSS VL: DIVLTQSPATLSVTPGHSVSLSCRASQSISNNLHWYQKKSHESPRLLIKYVSQSISGIPSRFSGSGSGTDFTLSINSVETEDFGMYFCQQSYNWPLTFGAGTKLELK | 3 grade (3 => 95% loss of binding vs wild type)
